Source: patent publication US20040121957A1 (CASE WESTERN RESERVE UNIVERSITY, published 2004)

Biological target: wild type CFTR (cystic fibrosis transmembrane conductance regulator) chloride channel (human, UniProt P13569 1-1480, phosphorylated by PKA in the assay (50 units/ml PKA and 2 mM ATP in the cis solution); sites not listed for the assay)
Assay: cell-based or functional assay

Chain of wild type CFTR (cystic fibrosis transmembrane conductance regulator) chloride channel (P13569 whole entry): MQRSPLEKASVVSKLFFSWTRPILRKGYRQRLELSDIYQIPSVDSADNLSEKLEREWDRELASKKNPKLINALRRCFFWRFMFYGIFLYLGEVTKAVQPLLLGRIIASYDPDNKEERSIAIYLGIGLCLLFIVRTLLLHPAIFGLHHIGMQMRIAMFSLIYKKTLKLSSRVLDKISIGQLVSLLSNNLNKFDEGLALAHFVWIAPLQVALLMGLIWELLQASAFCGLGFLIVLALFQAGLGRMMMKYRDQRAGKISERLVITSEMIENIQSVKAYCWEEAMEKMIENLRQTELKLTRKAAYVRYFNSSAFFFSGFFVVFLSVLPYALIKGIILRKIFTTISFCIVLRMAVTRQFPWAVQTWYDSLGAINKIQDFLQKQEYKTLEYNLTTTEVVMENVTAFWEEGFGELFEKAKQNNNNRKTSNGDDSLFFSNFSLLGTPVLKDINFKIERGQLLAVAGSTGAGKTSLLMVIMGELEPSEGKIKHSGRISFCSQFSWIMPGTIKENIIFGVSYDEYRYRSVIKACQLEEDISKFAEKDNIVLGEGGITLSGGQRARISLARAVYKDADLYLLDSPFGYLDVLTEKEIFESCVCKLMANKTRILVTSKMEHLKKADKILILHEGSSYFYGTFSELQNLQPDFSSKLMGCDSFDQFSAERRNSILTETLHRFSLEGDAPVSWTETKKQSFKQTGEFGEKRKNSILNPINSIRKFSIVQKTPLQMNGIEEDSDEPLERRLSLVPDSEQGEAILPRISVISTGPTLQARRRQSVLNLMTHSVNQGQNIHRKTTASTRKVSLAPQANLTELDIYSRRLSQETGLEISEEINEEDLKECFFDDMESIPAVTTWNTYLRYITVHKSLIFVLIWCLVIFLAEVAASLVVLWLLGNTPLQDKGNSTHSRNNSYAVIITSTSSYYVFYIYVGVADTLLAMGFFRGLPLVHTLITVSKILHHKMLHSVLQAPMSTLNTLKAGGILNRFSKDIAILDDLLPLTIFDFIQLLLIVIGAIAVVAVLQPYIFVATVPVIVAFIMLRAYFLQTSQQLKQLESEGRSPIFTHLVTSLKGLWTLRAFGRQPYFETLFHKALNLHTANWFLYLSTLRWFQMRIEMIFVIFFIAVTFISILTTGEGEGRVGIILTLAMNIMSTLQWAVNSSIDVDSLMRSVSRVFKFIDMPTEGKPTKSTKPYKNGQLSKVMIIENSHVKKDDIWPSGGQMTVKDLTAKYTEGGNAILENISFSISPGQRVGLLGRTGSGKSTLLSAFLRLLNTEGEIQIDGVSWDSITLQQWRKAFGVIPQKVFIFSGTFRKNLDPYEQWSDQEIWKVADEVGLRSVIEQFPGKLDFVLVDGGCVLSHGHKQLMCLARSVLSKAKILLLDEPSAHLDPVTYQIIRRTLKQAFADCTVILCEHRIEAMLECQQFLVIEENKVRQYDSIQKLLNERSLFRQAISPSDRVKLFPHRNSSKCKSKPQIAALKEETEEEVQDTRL

B1: synthetic NEG2 peptide (22 amino acid peptide corresponding to CFTR amino acids 817-838) (peptide)
peptide: GLEISEEINEEDLKECFFDDME
With B1 the “open probability of single wt-CFTR channel in planar lipid bilayer” value was greater than 2 fold.
